In patent US20210155701A1 (Chugai, published 2021):
Where a chain is given by its changes, count along the chain named.

T1: human CD3ed-Fc (biotin-labeled human CD3 epsilon and human CD3 delta linked to a human antibody constant … (human, biotin-labeled (BirA co-expression); site not stated)
T1 construct: also called CD3 epsilon delta heterodimer fused with the antibody constant region
T1 chain 1: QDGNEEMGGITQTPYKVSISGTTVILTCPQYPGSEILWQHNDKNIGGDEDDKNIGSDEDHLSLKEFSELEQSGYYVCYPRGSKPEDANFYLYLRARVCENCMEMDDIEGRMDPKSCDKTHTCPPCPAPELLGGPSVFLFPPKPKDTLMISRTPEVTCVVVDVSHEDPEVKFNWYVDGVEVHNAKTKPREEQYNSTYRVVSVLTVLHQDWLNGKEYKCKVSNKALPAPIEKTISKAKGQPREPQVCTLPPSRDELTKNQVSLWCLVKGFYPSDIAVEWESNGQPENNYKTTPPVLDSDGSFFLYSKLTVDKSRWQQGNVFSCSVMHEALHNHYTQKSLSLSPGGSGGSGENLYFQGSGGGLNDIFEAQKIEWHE
T1 chain 2: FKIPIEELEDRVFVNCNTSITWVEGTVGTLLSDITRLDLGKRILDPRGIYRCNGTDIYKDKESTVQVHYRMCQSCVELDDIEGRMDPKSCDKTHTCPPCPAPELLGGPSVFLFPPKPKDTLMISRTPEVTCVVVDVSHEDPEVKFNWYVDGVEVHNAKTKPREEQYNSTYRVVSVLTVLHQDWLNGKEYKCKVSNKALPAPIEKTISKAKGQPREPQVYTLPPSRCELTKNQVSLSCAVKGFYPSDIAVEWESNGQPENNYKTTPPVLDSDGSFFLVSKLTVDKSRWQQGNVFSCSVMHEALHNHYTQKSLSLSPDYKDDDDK

T2: soluble human IL-6R (human, UniProt P08887 20-357)
T2 construct: also called hsIL-6R; recombinant human IL6R
T2 sequence: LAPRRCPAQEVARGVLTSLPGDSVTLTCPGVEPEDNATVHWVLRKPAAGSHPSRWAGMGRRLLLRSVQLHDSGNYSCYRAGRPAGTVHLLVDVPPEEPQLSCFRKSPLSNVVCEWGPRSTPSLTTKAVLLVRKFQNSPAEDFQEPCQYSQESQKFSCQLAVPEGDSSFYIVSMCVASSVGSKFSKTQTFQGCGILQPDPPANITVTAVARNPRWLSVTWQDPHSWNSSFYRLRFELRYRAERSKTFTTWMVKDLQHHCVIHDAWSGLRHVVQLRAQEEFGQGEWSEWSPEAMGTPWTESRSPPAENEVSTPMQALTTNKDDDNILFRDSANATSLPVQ

B1: bC3edL1R1N160H01 (VHH)
VHH: QVQLVESGGGLVQPGGSLRLSCAASGFTFNHCWMYWVRQAPGKGLEWVSVINTDGGSAYYADSVKGRFTISRDNAKNTLYLQMNSLKSEDTAVYYCARDWAPLVDYYYGMDYWGKGTLVTVSG
B2: bC3edL1R1N164H01 (VHH)
VHH: QVQLVESGGGLVQPGGSLRLSCAASGFTFDVYGMSWVRHSPGKGLEWVSTINWNGGSTYYAESMKGRFTISRDNAKNTVYLQMNSLKPEDTAVYYCAKFAPWDGDMEWGQGTQVTVSG
B3: bC3edL1R1N161H01 (VHH)
VHH: QVQLVESGGGLVQPGGSLRLSCAASGFPFDNYVMSWVRQAPGKGLEWISAISWNGGSTYYAESMKGRFTISRDNAKSTLYLQMNSLKSEDTAVYYCAKEPRVYYSGSPDYWGQGTQVTVSG
B4: IL6R90-G1m/VK2-28-k0MT (antibody, human IgG1, kappa, V domains shown)
VH: EVQLVESGGGLVQPGGSLRLSCAASGFTFDDYGMSWVRQAPGKALEWVSAISWNGNNTYYTESMKGRFTISRDNAKNTLYLQMNSLRPEDTAVYYCVKGSTAIVGVPPTYPDEYDYWGQGTLVTVSS
VL: not shown
notes: IgG antibody-like molecule
B5: IL6R90-G1m/VL1-40-lamL (antibody, human IgG1, lambda, V domains shown)
VH: B4 VH
VL: QSVLTQPPSVSGAPGQRVTISCTGSSSNIGAGYDVHWYQQLPGTAPKLLIYGNSNRPSGVPDRFSGSKSGTSASLAITGLQAEDEADYYCQSYDNSLNAVVFGGGTKLTVLG
notes: IgG antibody-like molecule
B6: IL6R90-G1m/VL2-14-lamL (antibody, human IgG1, lambda, V domains shown)
VH: B4 VH
VL: QSALTQPASVSGSPGQSITISCTGTSSDVGGYNYVSWYQQHPGKAPKLMIYEVSNRPSGVSNRFSGSKSGNTASLTISGLQAEDEADYYCSSYRSGYTLVVFGGGTKLTVLG
notes: IgG antibody-like molecule
B7: IL6R90-G1m/VL1-44-lamL (antibody, human IgG1, lambda, V domains shown)
VH: B4 VH
VL: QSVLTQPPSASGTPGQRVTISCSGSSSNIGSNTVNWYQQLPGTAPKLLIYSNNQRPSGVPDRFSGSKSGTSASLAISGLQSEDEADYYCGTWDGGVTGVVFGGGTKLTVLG
notes: IgG antibody-like molecule
B8: bC3edL1R1N164H01-G1mISHI01/VK1-39-k0MT (before protease treatment) (antibody, human IgG1, kappa, V domains shown)
VH: B2 VHH
VL: DIQMTQSPSSLSASVGDRVTITCRASQSISSYLNWYQQKPGKAPKLLIYAASSLQSGVPSRFSGSGSGTDFTLTISSLQPEDFATYYCLQFDSYPLTFGGGTKVEIKR
notes: Uncleaved
B9: bC3edL1R1N160H01-G1mISHI01/VK1-39-k0MT (before protease treatment) (antibody, human IgG1, kappa, V domains shown)
VH: B1 VHH
VL: B8 VL
B10: bC3edL1R1N161H01-G1mISHI01/VK1-39-k0MT (before protease treatment) (antibody, human IgG1, kappa, V domains shown)
VH: B3 VHH
VL: B8 VL
notes: Uncleaved
B11: 20A11hu-G1m/VL2-14-lamL (antibody, human IgG1, lambda, V domains shown)
VH: EVQLVESGGGLVQPGGSLRLSCAASGSVFKINVMAWVRQAPGKGLEWVAGIISGGSTSYADSVKGRFTISRDNAKNTLYLQMNSLRPEDTAVYYCAFITTESDYDLGRRYWGQGTLVTVSS
VL: B6 VL
B12: 20A11hu-G1m/VK2-28-k0MT (antibody, human IgG1, kappa, V domains shown)
VH: B11 VH
VL: not shown
B13: 20A11hu-G1m/VK1-39-k0MT (antibody, human IgG1, kappa, V domains shown)
VH: B11 VH
VL: B8 VL
B14: 20A11hu-G1m/VL1-40-lamL (antibody, human IgG1, lambda, V domains shown)
VH: B11 VH
VL: B5 VL
B15: 20A11hu-G1m/VL1-44-lamL (antibody, human IgG1, lambda, V domains shown)
VH: B11 VH
VL: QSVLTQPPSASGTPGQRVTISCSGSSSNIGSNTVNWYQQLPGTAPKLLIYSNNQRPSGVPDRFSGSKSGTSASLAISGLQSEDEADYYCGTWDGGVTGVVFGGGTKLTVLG
B16: 20A11-G1m/VK1-39-k0MT (antibody, human IgG1, kappa, V domains shown)
VH: B11 VH with V37Y, L45R, W47L
VL: B8 VL
B17: 20A11-G1m/VL1-44-lamL (antibody, human IgG1, lambda, V domains shown)
VH: B11 VH with V37Y, L45R, W47L
VL: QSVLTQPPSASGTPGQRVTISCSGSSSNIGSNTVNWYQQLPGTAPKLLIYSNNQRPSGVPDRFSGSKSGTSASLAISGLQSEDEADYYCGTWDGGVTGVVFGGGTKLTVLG
B18: 20A11-G1m/VL3-21-lamL (antibody, human IgG1, lambda, V domains shown)
VH: B11 VH with V37Y, L45R, W47L
VL: SYVLTQPPSVSVAPGKTARITCGGNNIGSKSVHWYQQKPGQAPVLVIYYDSDRPSGIPERFSGSNSGNTATLTISRVEAGDEADYYCQAWDSSTDVVFGGGTKLTVLG
B19: 20A11-G1m/VL1-40-lamL (antibody, human IgG1, lambda, V domains shown)
VH: B11 VH with V37Y, L45R, W47L
VL: B5 VL
B20: 20A11-G1m/VK2-28-k0MT (antibody, human IgG1, kappa, V domains shown)
VH: B11 VH with V37Y, L45R, W47L
VL: not shown
B21: 20A11-G1m/VL2-14-lamL (antibody, human IgG1, lambda, V domains shown)
VH: B11 VH with V37Y, L45R, W47L
VL: B6 VL
B22: PX02-R4_017-G1mISHI01/VK1-39-k0MT (before protease treatment) (antibody, human IgG1, kappa, V domains shown)
VH: QVQLVESGGGLVQPGGSLRLSCTASGISFSISTMGWYRQAPGKQRELVATITSGGEAYYANSMKDRFTISRDNAENTVYLQMNRLKPEDSAVYYCNTKFPWSTDWNARGQGTQVTVSG
VL: B8 VL
notes: Uncleaved
B23: PX03-R4_009-G1mISHI01/VK1-39-k0MT (before protease treatment) (antibody, human IgG1, kappa, V domains shown)
VH: B22 VH with V2L, T52A, M63V, D65G, D72E, N73Y, Y79F
VL: B8 VL
notes: Uncleaved
B24: PX03-R2_006-G1mISHI01/VK1-39-k0MT (before protease treatment) (antibody, human IgG1, kappa, V domains shown)
VH: B22 VH with V2L, T52A, M63V, D65G
VL: B8 VL
notes: Uncleaved

Target: T1, human CD3ed-Fc (biotin-labeled human …)
Experiment: phage display: phage ELISA or panning on biotin-labeled human CD3ed-Fc (binding clone for human CD3)
Method: The obtained phages were evaluated for their binding to IL6R, CD3 or plexin A1 by ELISA. The sequence of a bound clone was analyzed by a method known to those skilled in the art to identify VHH binding to the antigen.
Phage production was performed from E. coli retaining the constructed phagemids for phage display. A phage population was precipitated by the addition of 2.5 M NaCl/10% PEG to the culture solution of the E. coli after the phage production, and then diluted with TB S to obtain a phage library solution. […] The magnetic beads used were NeutrAvidin coated beads (FG beads NeutrAvidin) or Streptavidin coated beads (Dynabeads MyOne Streptavidin T1).
Specifically, 100 pmol of the biotin-labeled antigen was added to the prepared phage library solution, and the phage library solution was contacted with the antigen at room temperature for 60 minutes. The magnetic beads blocked with BSA were added thereto, and the complexes of the antigen and the phages were bound to the magnetic beads at room temperature for 15 minutes. The beads were washed twice with 0.5 mL of TBST (TBS containing 0.1% Tween 20; TBS was manufactured by Takara Bio Inc.) and then further washed once with 0.5 mL of TBS. Then, 0.5 mL of 1 mg/mL trypsin was added thereto, and the beads were suspended at room temperature for 15 minutes and immediately thereafter, separated using a magnetic stand to recover a phage solution. The recovered phage solution was added to 20 mL of an E. coli line ER2738 in an exponential stage of growth (OD600: 0.4-0.5). The E. coli was cultured with mild stirring at 37 degrees C. for 1 hour and thereby infected by the phages.

Question: Does B1 bind?
Answer: Result: binds

Question: Does B2 bind?
Answer: Result: binds

Question: Does B3 bind?
Answer: Result: binds

Target: T2, soluble human IL-6R
Experiment: BLI (Octet HTX), molecule on Protein A biosensor, hsIL-6R as analyte, 30 degrees C
Method: The hsIL-6R binding evaluation of each molecule was conducted using Octet HTX (Pall ForteBio Corp.). Specifically, each molecule was bound to Biosensor/Protein A (ProA) (Pall ForteBio Corp., 18-5013), and hsIL-6R was allowed to act thereon, followed by binding evaluation at 30 degrees C.

Question: Does B4 bind?
Answer: Result: no binding

Question: Does B5 bind?
Answer: Result: no binding

Question: Does B6 bind?
Answer: Result: no binding

Question: Does B7 bind?
Answer: Result: no binding

Target: T1, human CD3ed-Fc (biotin-labeled human …)
Experiment: BLI (Octet RED) as in Example 3

Question: Does B8 bind?
Answer: Result: no binding

Question: Does B9 bind?
Answer: Result: no binding

Question: Does B10 bind?
Answer: Result: no binding

Target: T2, soluble human IL-6R
Experiment: BLI (Octet) as in Example 3, 30 degrees C or 25 degrees C

Question: Does B11 bind?
Answer: Result: no binding

Question: Does B12 bind?
Answer: Result: no binding

Question: Does B13 bind?
Answer: Result: no binding

Question: Does B14 bind?
Answer: Result: no binding

Question: Does B15 bind?
Answer: Result: no binding

Target: T2, soluble human IL-6R
Experiment: BLI (Octet) as in Example 3

Question: Does B16 bind?
Answer: Result: binds

Question: Does B17 bind?
Answer: Result: binds

Question: Does B18 bind?
Answer: Result: binds

Question: Does B19 bind?
Answer: Result: binds

Question: Does B20 bind?
Answer: Result: binds

Question: Does B21 bind?
Answer: Result: binds

Target: T3, biotinylated plexin A1 (human, UniProt Q9UIW2 27-1253, biotin on the AviTag sequence (SEQ ID NO: 36))
T3 construct: also called biotin-labeled human plexin A1; human plexin A1
Experiment: BLI (Octet) as in Example 3

T3 sequence (Q9UIW2 other isoform, or with tags, fused parts or gaps limits assumed): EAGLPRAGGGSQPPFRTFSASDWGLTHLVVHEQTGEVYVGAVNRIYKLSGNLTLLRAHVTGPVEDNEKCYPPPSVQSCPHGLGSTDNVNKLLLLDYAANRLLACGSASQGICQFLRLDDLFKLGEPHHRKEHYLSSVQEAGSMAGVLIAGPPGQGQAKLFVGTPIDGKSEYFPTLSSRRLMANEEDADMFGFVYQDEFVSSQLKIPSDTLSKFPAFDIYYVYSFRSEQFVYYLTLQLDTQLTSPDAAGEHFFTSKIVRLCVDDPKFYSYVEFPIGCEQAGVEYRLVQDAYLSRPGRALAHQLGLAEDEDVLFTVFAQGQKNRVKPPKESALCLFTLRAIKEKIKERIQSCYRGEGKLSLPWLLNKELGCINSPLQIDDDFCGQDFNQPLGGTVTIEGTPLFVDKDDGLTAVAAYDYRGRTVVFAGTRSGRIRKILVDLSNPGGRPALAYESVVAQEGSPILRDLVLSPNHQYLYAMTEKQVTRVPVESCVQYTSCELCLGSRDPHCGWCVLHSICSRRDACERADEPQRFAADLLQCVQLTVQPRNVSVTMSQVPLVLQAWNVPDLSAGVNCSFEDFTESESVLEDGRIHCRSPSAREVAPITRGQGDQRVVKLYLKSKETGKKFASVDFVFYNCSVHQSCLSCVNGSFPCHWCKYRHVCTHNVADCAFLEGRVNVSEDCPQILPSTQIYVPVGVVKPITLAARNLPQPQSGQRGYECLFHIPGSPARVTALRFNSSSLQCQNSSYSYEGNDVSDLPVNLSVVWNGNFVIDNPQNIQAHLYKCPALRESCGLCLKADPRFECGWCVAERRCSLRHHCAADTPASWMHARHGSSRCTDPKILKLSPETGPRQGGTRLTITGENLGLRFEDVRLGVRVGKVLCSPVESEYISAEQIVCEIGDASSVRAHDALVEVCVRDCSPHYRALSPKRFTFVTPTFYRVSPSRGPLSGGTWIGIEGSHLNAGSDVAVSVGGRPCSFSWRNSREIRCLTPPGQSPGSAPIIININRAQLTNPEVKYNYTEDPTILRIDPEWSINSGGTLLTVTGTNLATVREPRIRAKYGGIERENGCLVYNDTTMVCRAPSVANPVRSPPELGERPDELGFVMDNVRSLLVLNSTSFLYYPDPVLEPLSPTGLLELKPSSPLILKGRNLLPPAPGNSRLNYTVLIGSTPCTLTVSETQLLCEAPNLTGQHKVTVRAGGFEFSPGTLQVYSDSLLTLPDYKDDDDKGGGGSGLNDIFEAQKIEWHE

Question: Does B22 bind?
Answer: Result: no binding

Question: Does B23 bind?
Answer: Result: no binding

Question: Does B24 bind?
Answer: Result: no binding
